From publication PMC11277095 (International Journal of Molecular Sciences, 2024)

Target: the molecule itself
Assay: native gel or EMSA; 10 µg purified protein mixed with hypotonic buffer, hyperosmotic resealing solution (10% v/v Pigpa) or loading buffer; Tris/glycine buffer pH 8.3, 100 V; Coomassie staining

B1: Human ornithine aminotransferase variant R217A (OAT-R217A) (enzyme, UniProt P04181 26-439, looked up)
chain: TSVATKKTVQGPPTSDDIFEREYKYGAHNYHPLPVALERGKGIYLWDVEGRKYFDFLSSYSAVNQGHCHPKIVNALKSQVDKLTLTSRAFYNNVLGEYEEYITKLFNYHKVLPMNTGVEAGETACKLARKWGYTVKGIQKYKAKIVFAAGNFWGRTLSAISSSTDPTSYDGFGPFMPGFDIIPYNDLPALEAALQDPNVAAFMVEPIQGEAGVVVPDPGYLMGVRELCTRHQVLFIADEIQTGLARTGRWLAVDYENVRPDIVLLGKALSGGLYPVSAVLCDDDIMLTIKPGEHGSTYGGNPLGCRVAIAALEVLEEENLAENADKLGIILRNELMKLPSDVVTAVRGKGLLNAIVIKETKDWDAWKVCLRLRDNGLLAKPTHGDIIRFAPPLVIKEDELRESIEIINKTILSF
modifications: PLP bound to Lys292 through a Schiff base linkage
notes: Human ornithine aminotransferase, mitochondrial; construct printed as 'pET43a Δ26-439 OAT-R217A', the mature form with Arg217 changed to alanine; also called dimeric hOAT; source: E. coli BL21, purified (DEAE HiPrep FF, Sephacryl S-100)
B1: binds.
